The values that follow come from publication PMC7271239, “Structural and catalytic analysis of two diverse uridine phosphorylases in Phytophthora capsici” (Scientific Reports, 2020).

For one data set, the target named is T1, PcUP1 (Phytophthora capsici, UniProt A0A410UCT3).
T1 construct: gene up; homodimer, active site at the dimer interface (His19 and Arg59 from the neighbouring monomer)
T1 sequence (A0A410UCT3 1-296): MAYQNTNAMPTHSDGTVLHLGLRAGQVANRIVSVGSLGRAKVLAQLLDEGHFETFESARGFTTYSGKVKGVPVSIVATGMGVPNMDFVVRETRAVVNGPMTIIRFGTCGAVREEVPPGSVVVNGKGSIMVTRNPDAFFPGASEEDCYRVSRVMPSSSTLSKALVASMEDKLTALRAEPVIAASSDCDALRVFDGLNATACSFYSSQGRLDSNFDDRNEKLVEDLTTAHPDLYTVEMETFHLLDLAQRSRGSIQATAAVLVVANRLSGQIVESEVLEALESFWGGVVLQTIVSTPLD
Put plainly: X-ray crystal structure, […] Å. In kind it is binding. The following applies: with 2'-deoxyuridine (also with thymidine, 6K8P); phosphate site; crystals grown in phosphate.

Substrate in data set [1]: O=c1ccn([C@@H]2O[C@H](CO)[C@@H](O)[C@H]2O)c(=O)[nH]1
Briefly: HPLC of uracil formed, Michaelis-Menten fit. The following applies: phosphorolysis, uridine 0.25-5 mM, 10 mM Na2HPO4, pH 7.5, 25 °C, kcat assumes Et = 2. Format: biochemical, Phytophthora capsici.

In the case of `O=P(O)(O)O` [phosphate], the “X-ray crystal structure, 2.1 Å” value on PcUP1 is listed as “Arg59 is an important residue in the phosphate-bonding pocket, forming two hydrogen bonds”.

B1: PcUP2 (Phytophthora capsici) (protein)
chain: MAPNMDAVADATAQVHVRNSHILEMHSDVLFHIGLTCSQEERQQVANTFGDVKFFITGGSAERMTHFAQSVAKELGITTPYGYQLAPIGSTSRYTLFKVGPVLVANHGIGMPSISILLHEVTKLLEYAGAHGATYIRMGTSGGIGVEPGTVVITSEGVNNKLESVDEVAVLGSTVRRPSICSPEVREEIITAAKEVGLPYAVGKTLSCNDFYEGQGRLDGAICEYTLEDKMAFLQKLADAGVRNIEMEARLMAGFCHKLNIPVAVVCVTLLNRLNGDQVLSSHETLQDFERRPGAVLLHYIKSKVNASA
Regarding B1, in data set [1], the Km – broadly, the substrate concentration at which the rate is half of its maximum – is recorded as 7.55 ± 0.6 mM and the kcat (in general, the maximal rate divided by the concentration of active sites) stood at 1188 ± 90 s⁻¹.

B2: PcUP1 (Phytophthora capsici) (protein)
chain: MAYQNTNAMPTHSDGTVLHLGLRAGQVANRIVSVGSLGRAKVLAQLLDEGHFETFESARGFTTYSGKVKGVPVSIVATGMGVPNMDFVVRETRAVVNGPMTIIRFGTCGAVREEVPPGSVVVNGKGSIMVTRNPDAFFPGASEEDCYRVSRVMPSSSTLSKALVASMEDKLTALRAEPVIAASSDCDALRVFDGLNATACSFYSSQGRLDSNFDDRNEKLVEDLTTAHPDLYTVEMETFHLLDLAQRSRGSIQATAAVLVVANRLSGQIVESEVLEALESFWGGVVLQTIVSTPLD
notes: homodimer, active site at the dimer interface (His19 and Arg59 from the neighbouring monomer)
Regarding B2, in data set [1], the Michaelis-Menten constant (Km) is 6.96 ± 1.52 mM and the catalytic constant (kcat) was 982 ± 152 s⁻¹.
